Measurements as given in EP2857035B1.

How the values were obtained:
HLA-A2 (human) [1] = experiment: assembly assay (HLA stabilisation), T2 cell lysate, IP, IEF gel
HLA-A2 (human) [2] = experiment: assembly assay, TAP-deficient cell lysate, W6/32 IP, IEF gel
HLA-A1 (human) = experiment: as above
HLA-A3 (human) = experiment: as above

C1, HIV-1 pol476-484 (peptide)
C50 (HLA-A2 (human) [1]): 0.7 µM
C50 (HLA-A2 (human) [2]): 0.2 µM

C1, Influenza A, PB1 591-599 (peptide)
C50 (HLA-A1 (human)): 0.8 µM

Influenza A, nucleoprotein 265-273 (peptide)
C50 (HLA-A3 (human)): 0.1 µM
